The results in this text go back to the RNAGym collection of RNA variant scans (doi:10.7554/elife.90254).

B1: OR4K15 (parent)
chain: GUUAACGGUCAUAGGCCAUGGAAACUAGGAGCACCAUUUCGCUGCCAGUGAAGAAAUGAACAAAGAAAAUCUGGGCCAGGCAGGCAUCAAAAGAAAUAGUCUUGCGCUCAACCAGAAAGUCUGUAAUCAUUUUAAGGGUA

In this series the parent is B1. The series is described as follows: self-cleavage, relative activity (ratio to wild type); higher = more cleavage; in vitro, sequencing; the parent is a self-cleaving ribozyme.
For the variant U43A U102A, the self-cleavage amounted to 0.78.
On to U43A U102C, for which the self-cleavage came out at 2.2.
Next, A47G A111G: 0.02.
Next, A47G U127A: 1.33; A47G U127C: 0.59; G44A A63C: 2.07.
The value for G44A A63G was 0.71.
Turning to U43C A110G, the self-cleavage was found to be 0.15.
The value for C45U A86U was 1.17.
The value for A47G C105A was 0.07; that for C46U A56G was 1.12; that for A47U U139G was 1.4.
The value for A47G A91G was 0.69; that for U43C A116G was 0.53; that for U43C A116U was 0.46.
With A47G G74A, the self-cleavage is 0.21.
Next, A47U A90G: 0.72; A47U A55G: 0.6; C46A A52G: 1.25.
Next, U43C A89C: 1.36; G48A A51G: 2.22.
Next, A47G A51G: 0.9; G44U A59G: 1.67.
Consider A47G C85U, for which the self-cleavage stood at 0.65.
Consider A47U A98U, for which the self-cleavage stood at 1.79.
Next, A47G A64G: 1.17.
The value for U43A U139C was 2.42.
The value for U43A U139G was 2.1; that for C45G A55G was 1.73.
As to U43A U120G, the self-cleavage turned out to be 1.16.
In the case of U43A U120A, the self-cleavage amounted to 1.57.
Consider U43A U120C, for which the self-cleavage was 0.37.
Next, G48A U124A: 0.41.
The value for A47U A69G was 0.73.
With A47G U72A, the self-cleavage amounted to 0.09.
Next, A47G U72C: 0.35; A47G A68U: 1.17; A47G A68G: 1.23.
The value for A47G U132C was 0.47; that for U43C A55G was 1.07.
The value for U43C U120C was 0.46.
As for A47G A54G, the self-cleavage is 1.22.
Next, A47G A54U: 0.97.
In the case of A47G A78G, the self-cleavage is 0.26.
The value for A47G A78U was 0.14; that for A47G C112U was 0.01.
In the case of U43C U103G, the self-cleavage amounted to 0.01.
As for A47U U49A, the self-cleavage is 0.97.
Next, A47U U49C: 0.36; U43C A86G: 1.32; U43A U87C: 1.55.
Next, U43A U87A: 1.94; C46U A62U: 1.83.
Next, A47G A110U: 1.15; A47C U108C: 0.02.
For the variant G44A A82U, the self-cleavage amounted to 0.23.
G48A A110G: the self-cleavage came out at 0.12.
The value for G48A U120C was 1.38; that for A47U A67G was 1.23.
For the variant U43A U132A, the self-cleavage worked out at 1.41.
The value for U43A U132C was 1.86; that for U43C U127C was 0.89.
As to G44U A95G, the self-cleavage is 1.73.
Next, C45U U49G: 1.93; U43C A95U: 0.49; C46U G138A: 1.91.
The value for U43C A125U was 1.56.
Next, U43C A125G: 0.53; U43C U100C: 2.35; U43C U102A: 1.
As to U43C U102C, the self-cleavage came out at 2.15.
Next, A47G A89U: 0.42; U43C A51G: 1.14; G44A U122C: 1.67.
The value for G44U A64G was 1.19; that for A47G U131C was 0.71; that for A47G U131A was 0.62.
The value for U43C G123A was 2.35; that for A47U A118G was 0.76; that for U43C U122A was 1.34.
With U43C U122C, the self-cleavage was found to be 0.81.
The value for A47G A129G was 0.64; that for U43A U130C was 1.44; that for G44A was 1.53.
Regarding G44C, the self-cleavage amounted to 1.33.
Next, G44U: 1.91.
The value for U43C was 1.29.
Consider U43G, for which the self-cleavage worked out at 1.7.
Next, G44A G83A: 1.24; A47U A68G: 0.48.
The value for U43C U108C was 0.02; that for U43C U108A was 0.02.
Next, U43C U57G: 0.87; U43C U87C: 0.35.
Consider U43C U87A, for which the self-cleavage worked out at 1.94.
For the variant A47U G99A, the self-cleavage turned out to be 0.23.
Next, U43C A54G: 1.4.
The value for U43C A54U was 0.85.
Turning to C46U A86G, the self-cleavage came to 1.41.
Next, G48A U102A: 1.1; A47G A134G: 0.84.
Next, A47G A90U: 0.8.
Next, G44A A95G: 1.76; A47U A66U: 0.99; C45U A129G: 1.16.
As for G48A U133C, the self-cleavage was 2.78.
The value for U43G A51U was 2.16; that for U43G A51G was 2.35.
The value for U43C C107U was 0.02.
Next, C45U G119A: 1.99.
Regarding A47U A60G, the self-cleavage was 0.42.
The value for A47G A63U was 1.03.
Next, G48A A82U: 0.12; C45U A60G: 1.29.
Next, C45U U108A: 0.01.
In the case of G44A A47G, the self-cleavage stood at 1.27.
The value for C46U U139C was 2.16; that for C46U U139A was 1.41; that for A47U U72A was 0.13.
Consider U43A U100C, for which the self-cleavage worked out at 2.43.
Next, G48A U49C: 1.73; G44A U102C: 2.14.
Next, G44A U102A: 1.56.
Take G48A A64U: the self-cleavage was found to be 1.63.
The value for C45U U103C was 0.54.
Next, G48A: 1.44.
Take G48C: the self-cleavage came to 1.46.
The value for C45U A68C was 1.95; that for A47G U100G was 2.14.
On to A47C U87C, for which the self-cleavage is 1.76.
The value for A47G U102C was 1.25; that for A47G U102G was 0.41.
Next, A47G U102A: 0.78; U43C A59C: 0.12.
Next, U43C A59U: 1.48; U43C U49C: 1.22; A47G A60G: 0.74.
For U43C A92G, the self-cleavage was 1.24.
In the case of C46U C85U, the self-cleavage amounted to 1.36.
The value for G44U A66U was 2.02; that for C45A U127C was 0.26; that for A47C A68G was 0.55.
On to A47G A92G, for which the self-cleavage worked out at 1.02.
A47G U130C: the self-cleavage was 0.33.
Next, U43C A126C: 1.95; U43C A126G: 0.73; A47U A62U: 1.36.
The value for A47G A67G was 1.12.
Next, A47G U97A: 1.21; A47G U97C: 1.08; A47U A59U: 0.57.
In the case of C46U U72C, the self-cleavage stood at 0.21.
The value for A47C was 0.88; that for A47G was 0.96.
The value for A47U was 0.72.
Next, A47U A95G: 1.25; U43C U130C: 0.47; A47C A116G: 1.3.
For G44U A52U, the self-cleavage was found to be 0.
Next, C45U A114U: 0.13; C45U A114G: 0.75.
Next, U43C C85U: 1.32.
Next, A47U U102G: 0.28; A47U U102A: 0.45; A47G A86U: 2.98.
On to C45G U131C, for which the self-cleavage amounted to 0.41.
The value for A47C A92U was 0.74.
